Measurements taken from US20260193372A1 (Hoffmann-La Roche, published 2026).
Substitutions are numbered along the chain they refer to. Names and notes keep the numbering of the source.

B1: C3bBb.P045.072 (Fab, V domains shown)
VH: KLQLVESGGGLVKPGGSLRLSCAASGRRFGVQDMSWVRQAPGKGLEWVGSISPKGDHKYLNTKFIGRFTISRDNSKNTLYLQMNSLRAEDTAVYYCARDWGYFDQWGQGTLVTVSS
VL: AIQMTQSPSSLSASVGDRVTITCHGSYWLSSEVAWYQQKPGKAPKLLIYDGNGIIGNVPSRFSGSGSHEDYTLTISSLQPEDFATYYCQQYRYHPYTFGHGTKVEIK
notes: Tested as soluble Fab in E. coli supernatant with a T7 tag at the C-terminus of the Fab CH1 domain; detected with anti human kappa
B2: C3bBb.P048.061 (Fab, V domains shown)
VH: GQLVESGGGLVKPGGSLRLSCKASGFYWGPGAMSWVRQAPGKGLEWVGSISPKGGSTDINPKIGGRFTISRDNNQDTLYLQMNSLRAEDTAVYYCARDIGFFDTWGQGTLVTVSS
VL: AIQMTQSPSSLSASVGDRVTITCQGSWLISNYLAWYQQKPGKAPKLLIFDAKYRAPEVPSRFSGSGSGTDFTLTISSLQPEDFATYYCQQYGGRLLTFGQGTKVEIK
notes: as for B1
B3: C3bBb.P048.127 (Fab, V domains shown)
VH: B2 VH with D58E, I59Y, P61T, I63V, G64Y
VL: HQMTQSPSSLSASVGDRVTITCDGEWDISNYLAWYQQKPGKAPKLLIFDAKYRAPEVPSRFSGSGSGRDFTLTISSLQPEDFATYYCQQYNRMYFTFGQGTKVEIK
notes: as for B1
B4: C3bBb.P048.241 (Fab, V domains shown)
VH: B2 VH with T57A, D58W, I59Y, P61N, K62N, I63F, G64T
VL: INQMTQSPSSLSASVGDRVTITCQAKWVISNYLAWYQQKPGKAPKLLIFDAKYRAPEVPSRFSGSGSDGTFTLTISSLQPEDFATYYCQQYDWWPYTFGQGTKVEIK
notes: as for B1
B5: C3bBb.P055.015 (Fab, V domains shown)
VH: B2 VH with T57A, D58E, I59Y, N60A, P61S, I63V, G64Y
VL: DYQMTQSPSSLSASVGDRVTITCEAHSQISNYLAWYQQKPGKAPKLLIFDAKYRAPEVPSRFSGSGSGPDFTLTISSLQPEDFATYYCQQYNDFWLTFGQGTKVEIK
notes: as for B1
B6: recombinant human FB with D279G, K350N and M458I with His Tag and Precission site (enzyme)
chain: KIVLDPSGSMNIYLVLDGSGSIGASNFTGAKKCLVNLIEKVASYGVKPRYGLVTYATYPKIWVKVSEADSSNADWVTKQLNEINYEDHKLNSGTNTKKALQAVYSMMSWPDDVPPEGWNRTRHVIILMTDGLHNMGGDPITVIDEIRDLLYIGKDRKNPREDYLDVYVFGVGPLVNQVNINALASKKDNEQHVFKVKDIENLEDVFYQMIDESQSLSLCGMVWEHRKGTDYHKQPWQAKISVIRPSKGHESCMGAVVSEYFVLTAAHCFTVDDKEHSIKVSVGGEKRDLEIEVVLFHPNYNINGKKEAGIPEFYDYDVALIKLKNKLKYGQTIRPICLPCTEGTTRALRLPPTTTCQQQKEELLPAQDIKALFVSEEEKKLTRKEVYIKNGDKKGSCERDAQYAPGYDKVKDISEVVTPRFLCTGGVSPYADPNTCRGDSGGPLIVHKRSRFIQVGVISWGVVDVCKNQKRQKQVPAHARDFHINLFQVLPWLKEKLQDEDLGFL
notes: Cleaved by factor D in the assay; the Bb subunit stays on C3b; also called FB (D279G, K350N and M458I); triple mutated Bb

How the values were obtained:
[1] = biological target: mixture of 5 nM human C3, 5 nM human C3a and 2.5 nM human C3b coated on the plate; experiment: counterscreening ELISA, plate coated with a mixture of human C3, C3a and C3b, Fab supernatant
[2] = biological target: mixture of 10 nM human Factor B, 5 nM human Ba and 10 nM human Bb coated on the plate; experiment: counterscreening ELISA, plate coated with a mixture of human Factor B, Ba and Bb, Fab supernatant
[3] = biological target: T1, stabilized human C3bBb complex comprising the Bb subunit of the FB protein of SEQ ID NO: 2 (single mutant), … (human, UniProt P01024 23-667; P00751 260-764; P01024 749-1663, limits assumed, biotinylated with EZ-Link HPDP-Biotin (Cys)); experiment: ELISA, biotinylated C3bBb on streptavidin plate, Fab supernatant, anti kappa/anti T7 HRP
T1 construct: also called C3bBb (D279G)
Experimental: (§1) Method: 20 μl of a mixture of 500 ng/ml stabilized human C3bBb-Cys-HPDP-Biotin (inhouse preparation), 1:3000 mouse anti human kappa HRP (Southern Biotech 9230-05) and 1:2000 Mouse IgG anti T7 Tag HRP (Novagen 69048-3) was added to a Microcoat Streptavidine coated 384 well Microplate (Microcoat 11974998001). 25 μl sample was added to the plate and incubated at room temperature for 1 hour. After incubation plates were washed with 90 μl/well washing buffer using a Biotek EL406 Washer and 30 μl TMB (3,3′,5,5′-3,3,5,5-Tetramethylbenzidine, Roche 11835033001) was added. After a 5 Minute incubation at room temperature the optical density (OD) was measured at 370 nm using an En Vision Multimode Plate Reader (Perkin Elmer).

[4] = biological target: T2, stabilized human C3bBb complex comprising the Bb subunit of the FB protein of SEQ ID NO: 3 (triple mutant), … (human, UniProt P01024 23-667; P00751 260-764; P01024 749-1663, limits assumed, biotinylated with EZ-Link HPDP-Biotin (Cys)); experiment: as above
T2 construct: also called C3bBb (D279G/350N/M458I); C3bBb triple mutant-HPDP
Experimental: as §1

[5] = biological target: T3, plasma purified C3b (Complement Technology), biotinylated at cysteine 1010 with Maleimide-PEG3-biotin (human, UniProt P01024 23-667; P01024 749-1663, limits assumed, cysteine 1010 biotinylated (Maleimide-PEG3-biotin)); experiment: BLI, biotinylated C3b on streptavidin sensor, FB with factor D, Ni2+ buffer, dissociation of C3bBb, single exponential fit
T3 construct: Loaded on streptavidin BLI sensors; also called Complement C3 beta chain (C3b); C3 fragment
Description: Correction of the BLI trace was identical to the experiment in presence of magnesium. Different from the Mg2+ containing C3bBb complexes, only one species was detected during dissociation and a single exponential decay (A*exp(((−1)*B)*x)) was used for analysis.

[6] = biological target: T3, plasma purified C3b (Complement …); experiment: BLI, dissociation of C3bBb, Ni2+ buffer, against wild type C3bBb formed in presence of magnesium ions
[7] = biological target: T3, plasma purified C3b (Complement …); experiment: BLI, biotinylated C3b on streptavidin sensor, FB with factor D, Mg2+ buffer, dissociation of C3bBb, double exponential fit
Experimental: To analyze stability of the C3bBb complexes having the different Bb subunits, C3b cysteine 1010 was biotinylated by incubating plasma purified C3b (Complement Technology) overnight at 4° C. in presence of 5 molar excess Maleimide-PEG3-biotin (Thermo Fisher Scientific) followed by purification on a Zeba spin column 40K (Thermo Fisher Scientific). This material was used to load streptavidin functionalized BLI sensors (SA sensors; Fortebio) in an Octet RED 384 device (Fortebio) at high density (5 nm BLI signal). C3bBb was assembled by exposing the C3b loaded sensors to different recombinant factor B variants (i.e. wild type SEQ ID NO: 1; D279G variant of SEQ ID NO: 2; D279G K350N M458I triple variant of SEQ ID NO: 3) in presence of 54 nM plasma purified factor D (Complement Technology) in HBS-T (Mg) buffer (150 mM NaCl, 10 mM HEPES, 1 mM MgCl2, 0.005% Tween20. pH 7.4) at 22° C. […]
After subtraction of the signal recorded from parallel reference sensors omitting the C3b loading step and subtraction of a control sensor omitting factor B and factor D, data of the dissociation phase was fitted to the double exponential ((A*exp(((−1)*B)*x)))+(C*exp(((−1)*D)*x)) using XLfit (IDBS software), allowing for heterogeneity in the assembled convertase population. […]

T3 sequence (P01024 23-667 limits assumed, chain 1 of 2): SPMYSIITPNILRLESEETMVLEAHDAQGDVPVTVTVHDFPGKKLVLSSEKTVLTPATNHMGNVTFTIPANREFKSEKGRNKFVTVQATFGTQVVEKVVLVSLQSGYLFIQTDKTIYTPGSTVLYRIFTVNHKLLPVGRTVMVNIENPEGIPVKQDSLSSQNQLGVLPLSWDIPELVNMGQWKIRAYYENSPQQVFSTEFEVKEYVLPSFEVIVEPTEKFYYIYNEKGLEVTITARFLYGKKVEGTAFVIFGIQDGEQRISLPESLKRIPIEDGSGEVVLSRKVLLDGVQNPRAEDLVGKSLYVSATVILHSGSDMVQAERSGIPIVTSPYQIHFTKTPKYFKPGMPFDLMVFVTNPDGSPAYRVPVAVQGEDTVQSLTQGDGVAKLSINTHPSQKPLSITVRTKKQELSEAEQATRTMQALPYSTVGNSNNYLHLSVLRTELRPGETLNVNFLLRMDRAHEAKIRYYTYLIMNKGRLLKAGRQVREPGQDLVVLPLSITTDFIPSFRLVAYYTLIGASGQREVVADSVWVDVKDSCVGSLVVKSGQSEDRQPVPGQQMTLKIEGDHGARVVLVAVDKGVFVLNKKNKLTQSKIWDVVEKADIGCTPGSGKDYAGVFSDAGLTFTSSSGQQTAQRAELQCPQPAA
T3 sequence (P01024 749-1663 limits assumed, chain 2 of 2): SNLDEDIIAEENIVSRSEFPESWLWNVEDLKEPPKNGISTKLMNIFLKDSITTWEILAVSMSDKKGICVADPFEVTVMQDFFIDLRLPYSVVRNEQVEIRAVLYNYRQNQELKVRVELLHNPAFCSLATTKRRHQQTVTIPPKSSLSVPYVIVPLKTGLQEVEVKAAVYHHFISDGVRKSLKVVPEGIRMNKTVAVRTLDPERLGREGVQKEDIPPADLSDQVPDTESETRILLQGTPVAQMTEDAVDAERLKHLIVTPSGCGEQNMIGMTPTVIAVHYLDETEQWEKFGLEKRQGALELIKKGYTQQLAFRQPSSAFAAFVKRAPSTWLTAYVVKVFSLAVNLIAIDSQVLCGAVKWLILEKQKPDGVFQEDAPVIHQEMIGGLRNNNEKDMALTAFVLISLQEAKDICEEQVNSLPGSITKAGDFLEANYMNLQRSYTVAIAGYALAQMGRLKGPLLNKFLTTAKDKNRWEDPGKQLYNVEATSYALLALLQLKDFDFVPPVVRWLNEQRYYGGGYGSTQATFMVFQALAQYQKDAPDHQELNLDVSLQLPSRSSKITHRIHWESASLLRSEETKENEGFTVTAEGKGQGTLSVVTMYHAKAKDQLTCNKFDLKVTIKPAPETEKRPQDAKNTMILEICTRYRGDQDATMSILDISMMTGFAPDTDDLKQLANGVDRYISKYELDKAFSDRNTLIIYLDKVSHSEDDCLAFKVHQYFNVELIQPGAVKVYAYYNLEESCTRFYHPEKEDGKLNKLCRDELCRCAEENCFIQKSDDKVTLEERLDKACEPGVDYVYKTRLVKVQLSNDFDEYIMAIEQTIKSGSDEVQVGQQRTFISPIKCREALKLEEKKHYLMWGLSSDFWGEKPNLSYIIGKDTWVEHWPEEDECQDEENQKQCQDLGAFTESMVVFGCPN
T2 sequence (P01024 23-667 limits assumed, stated change not applied, chain 1 of 3, one chain of several): as the sequence (P01024 23-667 limits assumed, chain 1 of 2) above
T2 sequence (P01024 749-1663 limits assumed, stated change not applied, chain 3 of 3, one chain of several): as the sequence (P01024 749-1663 limits assumed, chain 2 of 2) above
T1 sequence (P01024 23-667 limits assumed, stated change not applied, chain 1 of 3): as the sequence (P01024 23-667 limits assumed, chain 1 of 2) above
T1 sequence (P00751 other isoform, or with tags, fused parts or gaps mutant limits assumed, chain 2 of 3): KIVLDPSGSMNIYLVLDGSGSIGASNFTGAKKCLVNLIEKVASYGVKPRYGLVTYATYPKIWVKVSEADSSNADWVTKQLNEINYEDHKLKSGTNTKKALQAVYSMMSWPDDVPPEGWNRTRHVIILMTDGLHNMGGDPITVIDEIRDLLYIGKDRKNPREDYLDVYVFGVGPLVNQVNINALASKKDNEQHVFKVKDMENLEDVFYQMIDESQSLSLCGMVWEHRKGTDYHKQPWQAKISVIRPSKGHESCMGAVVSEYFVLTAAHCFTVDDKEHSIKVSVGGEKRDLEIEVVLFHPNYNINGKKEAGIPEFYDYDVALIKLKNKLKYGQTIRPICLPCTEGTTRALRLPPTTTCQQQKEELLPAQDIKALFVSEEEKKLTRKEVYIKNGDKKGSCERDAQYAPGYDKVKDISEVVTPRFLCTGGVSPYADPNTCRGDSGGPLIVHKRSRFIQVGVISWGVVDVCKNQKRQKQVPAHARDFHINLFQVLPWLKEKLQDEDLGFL
T1 sequence (P01024 749-1663 limits assumed, stated change not applied, chain 3 of 3): as the sequence (P01024 749-1663 limits assumed, chain 2 of 2) above

| Binder | OD (370 nm) [1] [OD] | OD (370 nm) [2] [OD] | OD (370 nm) [3] [OD] | OD (370 nm) [4] [OD] | prevalence of main species [5] [%] | t ½ [5] [min] | fold increase in C3bBb half-life [6] [fold] | prevalence of main species [7] [%] | t ½ [7] [min] |
| --- | --- | --- | --- | --- | --- | --- | --- | --- | --- |
| B1 | -0.005 | -0.01 | 0.023 | 2.9 | – | – | – | – | – |
| B2 | 0.001 | 0.006 | 0.004 | 1.9 | – | – | – | – | – |
| B3 | -0.006 | 0.002 | 2.42 | 0.187 | – | – | – | – | – |
| B4 | 0.17 | 0.037 | 2.57 | 2.38 | – | – | – | – | – |
| B5 | -0.014 | 0.004 | 0.86 | -0.01 | – | – | – | – | – |
| B6 | – | – | – | – | 100 | 678 | 135 | 93 | 119 |
